These results are taken from paper PMC4017629 (Journal of molecular biology, 2014).

The target of data set [1] is T1, N-terminal DNA-binding domain of AbrB (AbrBN), residues 1-53 (B. subtilis).
T1 sequence (P08874 whole entry, looked up): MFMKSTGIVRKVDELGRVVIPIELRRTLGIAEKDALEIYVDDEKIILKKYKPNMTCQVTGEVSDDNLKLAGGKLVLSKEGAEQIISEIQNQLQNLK
The data set can be described thus: AUC.

Data set [2] has the same target. The data set can be described thus: SEC.
Data set [3] addresses C-terminal multimerization domain of AbrB (AbrBC), residues 54-94 (B. subtilis). Description: SEC. On the technique in general: SEC sorts molecules by how far they enter the pores of the column.
The data set “SEC” deals with the molecule itself. The data set can be described thus: SEC.
In data set [4] the target is T2, Full-length AbrB from B. subtilis (B. subtilis, UniProt P08874 1-96).
T2 sequence (looked up): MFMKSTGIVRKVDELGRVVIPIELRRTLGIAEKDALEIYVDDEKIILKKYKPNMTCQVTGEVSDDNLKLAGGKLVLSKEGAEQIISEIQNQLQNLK
Description: ITC. A general note: ITC needs no label: the signal is the heat of the interaction.

Several values for one entry are separate records, joined by “and”; a condition that tells them apart may be missing. Equal entries are not always repeated.

As to “N-terminal DNA-binding domain of AbrB (AbrBN), residues 1-53 (domain or fragment)”, the stoichiometry N in data set [1] and in data set [2] was 2 throughout.
In data set [3], “C-terminal multimerization domain of AbrB (AbrBC), residues 54-94 (domain or fragment)” yielded a stoichiometry N of 2.

B1: AbbA (anti-repressor protein AbbA from B. subtilis), histidine tag removed (natural protein, UniProt O31697 1-65, looked up)
chain: MRMSLIGERFTEEEQKLLLNILINHEYAIELLSSEINDIETGTKNVDGTTYKKLVTLYDRFRFEN
For the molecule B1, the “stoichiometry N” value is 2 in the data set “SEC”; 0.868 to 0.969 (2×) and 0.918 in data set [4]. The same molecule yielded a stoichiometry N (AbbA chains per AbrBN chain (2:2)) in data set [1] of 1. Also, in data set [4], the Kd is 16 nM and 11 to 21 nM.

As a reminder, the stoichiometry N is a count of units in the complex or per binding partner. As usually defined, the Kd is a measure of binding affinity in units of concentration. High values mean a looser complex, low ones a tighter complex.
